According to paper PMC7217667:

T1: OsMYB80 (rice, UniProt Q7XQN1 1-372)
T1 sequence: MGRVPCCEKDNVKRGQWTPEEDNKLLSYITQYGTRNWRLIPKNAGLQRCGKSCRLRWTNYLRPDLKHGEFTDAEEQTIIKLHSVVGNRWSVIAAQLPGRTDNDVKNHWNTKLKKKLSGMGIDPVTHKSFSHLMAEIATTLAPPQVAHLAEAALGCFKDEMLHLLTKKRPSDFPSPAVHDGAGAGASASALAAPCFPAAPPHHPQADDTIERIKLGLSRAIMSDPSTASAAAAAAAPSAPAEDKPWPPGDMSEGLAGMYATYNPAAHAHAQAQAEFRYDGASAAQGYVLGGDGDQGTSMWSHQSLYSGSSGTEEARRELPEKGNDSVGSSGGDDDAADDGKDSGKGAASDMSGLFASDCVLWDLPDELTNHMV

B1: OsMYB80 promoter OsMYB80-1 probe (dsDNA)
DNA 1: TGAACCTAAGGCTGTAAATTTGTTCGGACAAAGGATCATT
DNA 2: AATGATCCTTTGTCCGAACAAATTTACAGCCTTAGGTTCA
B2: LOC_Os03g35920 promoter probe (dsDNA)
DNA 1: GATCTGCATTTGTTAGTTCACCAGCAC
DNA 2: GTGCTGGTGAACTAACAAATGCAGATC
B3: LOC_Os01g50750 promoter probe (dsDNA)
DNA 1: CACCTAAACAAAACCAAACACAAGC
DNA 2: GCTTGTGTTTGGTTTTGTTTAGGTG
B4: LOC_Os01g27170 promoter probe (dsDNA)
DNA 1: CCATCAAAATATATTGACTGTTGGATTTAATG
DNA 2: CATTAAATCCAACAGTCAATATATTTTGATGG
B5: LOC_Os09g36730 promoter probe (dsDNA)
DNA 1: ACCTCACTTTACACCTACCTTGAAGGTT
DNA 2: AACCTTCAAGGTAGGTGTAAAGTGAGGT
B6: LOC_Os07g40830 promoter probe (dsDNA)
DNA 1: CACGCATTCAGGAAACCAGAAGGATC
DNA 2: GATCCTTCTGGTTTCCTGAATGCGTG
B7: LOC_Os08g38810 promoter probe (dsDNA)
DNA 1: CCTGGTCAGTCCTGTTGCACGGCTATATG
DNA 2: CATATAGCCGTGCAACAGGACTGACCAGG
B8: LOC_Os01g04080 promoter probe (dsDNA)
DNA 1: CCAAATAAACGAGAAAACGGCAAAGGCATATGTCATTCAC
DNA 2: GTGAATGACATATGCCTTTGCCGTTTTCTCGTTTATTTGG
B9: LOC_Os04g51990 promoter probe (dsDNA)
DNA 1: CTGCAGGAAATGGAAAACCATCTTATAGAAG
DNA 2: CTTCTATAAGATGGTTTTCCATTTCCTGCAG
B10: LOC_Os06g11135 promoter probe (dsDNA)
DNA 1: TCTACCCTCACCAACCACGCTCCCA
DNA 2: TGGGAGCGTGGTTGGTGAGGGTAGA
B11: OsMYB80 promoter OsMYB80-2 probe (dsDNA)
DNA 1: ACTCATAGCCTGCTATGTTCACAAGGTTTTATATTACTGA
DNA 2: TCAGTAATATAAAACCTTGTGAACATAGCAGGCTATGAGT
B12: LOC_Os08g20200 promoter probe (dsDNA)
DNA 1: TAAGCCAGCTACAACTGACCAACTC
DNA 2: GAGTTGGTCAGTTGTAGCTGGCTTA

molecular target: T1, OsMYB80; assay: EMSA

Binder	binding result
B1	binds
B2	binds
B3	binds
B4	binds
B5	binds
B6	binds
B7	binds
B8	binds
B9	binds
B10	binds
B11	binds
B12	binds
